Measured values reported in PMC12323189.

Columns and labels:
[1] = western blot, flow cytometry, confocal microscopy; details: glycan changed form; control: MCF7 cells
[2] = CHX (20 µM) chase, PD-L1 half-life; details: glycan changed form; control: 231 cells
[3] = flow cytometry and immunofluorescence; details: glycan changed form; control: 231 cells
[4] = western blot of extracellular vesicles; details: glycan changed form; control: 231-EVs

Substance: PD-L1: MCF7-shM3 (MGAT3 shRNA)
- expression_or_secretion [1]: increases

Substance: PD-L1: 231-MGAT3 (MGAT3 overexpression)
- degradation_or_half_life [2]: decreases
- expression_or_secretion [3]: decreases

Substance: PD-L1: 231-MGAT3-EVs (MGAT3 overexpression)
- expression_or_secretion [4]: decreases
